Molecular target: EWS low-complexity domain (EWS^LCD, EWS 1-264) (human) (UniProt Q01844)
Assay: co-sedimentation

Chain of EWS low-complexity domain (EWS^LCD, EWS 1-264) (human) (Q01844 1-264, one chain of several): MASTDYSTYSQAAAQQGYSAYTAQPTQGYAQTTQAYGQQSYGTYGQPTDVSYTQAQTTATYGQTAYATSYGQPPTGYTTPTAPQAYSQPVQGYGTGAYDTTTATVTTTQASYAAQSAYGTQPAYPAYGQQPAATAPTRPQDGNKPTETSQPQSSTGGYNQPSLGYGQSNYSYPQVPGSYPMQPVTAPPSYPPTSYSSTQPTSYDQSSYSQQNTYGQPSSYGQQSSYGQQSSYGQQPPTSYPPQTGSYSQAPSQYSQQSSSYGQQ

percent of total FLI1^DBD in the pellet fraction: 55%
Substance: FLI1 DNA-binding domain (FLI1^DBD) (domain or fragment)

Reference: doi:10.1101/2022.06.04.494830
